Target: SARS-CoV-2 RBD, truncated version (residues 333–529) (SARS-CoV-2, UniProt P0DTC2)
Test: crystal structure
Settings: both partners purified

B1: COVA1–16 Fab (Fab, V domains shown)
VH: QVQLVQSGAEVKKPGASVKVSCKASGYTFTSYYMHWVRQAPGQGLEWMGIINSSGGSTSYAQKFQGRVTMTRDTSTSTVYMELSSLRSEDTAVYYCARPPRNYYDRSGYYQRAEYFQHWGQGTLVTVSS
VL: DIQLTQSPSSLSASVGDRVTITCQASQDISNYLNWYQQRPGKAPKLLIYDASNLETGVPSRFSGSGSGTDFTFTISSLQPEDIATYYCQQYDNPPLTFGGGTKLEIK
notes: also called Fab COVA1–16
Does B1 bind?
Result: binds
